According to the supplement of paper PMC10567573:

B1: PBXIP1 (parent)
chain: LQQLRARLQGLEADCVRGPDGVCL
B2: FCHSD1 (parent)
chain: LEAAEVILEHAHRGEQTTSQVSWE

Variants of: B1
Test: protein stability index of a GFP-peptide fusion (GPS, HEK-293T) (PSI 1-6); higher = more stable
Conditions: c terminus: a fixed tail appended
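Further: lentivirally expressed fusions sorted by FACS into six bins by GFP to DsRed ratio, PSI derived from sequencing read proportions per bin multiplied by bin number.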

Protein stability index, by site and new letter:
P19: I 2.58; Y 2.13; T 2.12; W 1.5; V 2.65; K 1.98; D 2.23; R 1.41; N 1; F 1.92; H 2.62; S 1
G21: R 2.56; A 1.28; T 1.99; S 3.94; W 2.07; K 3.18; I 1.75; Q 3.34; Y 1.28; N 2.69
V22: M 2.13; Y 1.52; A 2.03; K 2.39; Q 2.83; G 1.78; I 1.96; L 1.46; F 1.34; T 2.57; R 3.41; S 3.23; C 1.84
G18: P 1.78; I 1.87; V 3.65; F 1.47; Q 2.9; W 2.54; K 2.27; M 2.32; H 2.39; C 2.23; D 3.74; Y 1.93; A 2.97
D20: M 1.53; R 2.54; G 2.45; K 2.08; E 1.89; V 1.8; P 1.5; Y 1.26; Q 3.03; I 1.9; T 2.12; H 1.6; W 1.84; A 2.03
L24: V 1.79; Y 2.34; Q 3.1; P 2.79; I 1.94; N 3.04; D 3.08; S 2.89; H 2.97; T 1.74; W 2.15; R 2.65
R17: W 1.81; T 3.19; Y 2.47; V 2.2
C23: P 2.52; K 2.03; L 2.48; I 2.78; S 1.96; Y 2.29; N 1.65; A 2.2; H 2.66; Q 2.39; E 2.98; W 3.01; V 1.74; M 2.23

Variants of: B2
Test: as above
Conditions: c terminus: a fixed tail appended

Protein stability index of substitutions, site by site:
A4: L 2.59; Y 2.48; V 3.15; I 2.56; R 3.59; K 4.24; C 4.59; F 2.35; P 5.19; T 3.82; N 4.52; D 3.59; E 5.11; G 5.06; M 2.35; H 4.46
E2: T 3.6; D 4.31; K 3.93; P 4.32; A 3.94; C 1.85; N 4.42; Q 4.41; I 2.5; F 2.21; M 3.79; H 4.72; R 3.84; S 3.7
V6: F 3.56; R 4.48; H 4.7; P 5.66; K 4.16; D 5.52; A 4.9; E 5.31; Y 4.17; M 3.85; Q 5.27; G 5.35; I 4.03; S 4.24; N 5.66; L 3.95
Q16: C 2.73; D 4.9; A 4.41
E9: R 3.39; G 3.87; N 3.8; C 3.04; F 2.54; W 2.05; Y 2.33; V 2.5; D 4.33; S 4.4; K 4.19; H 4.18; T 3.62; Q 3.45; M 2.66; I 1.86; L 2.52
E5: F 2.29; Q 4.2; K 3.48; T 4.38; D 4.31; Y 2.01; M 2.4; L 1.11; S 4.1; N 3.63; C 2.82; I 2.18; H 3.6; V 2.83; R 4.22; A 2.84; W 1.53
H12: E 4.92; F 2.87; N 4.55; M 3.79; I 4.25; A 4.23; K 4.07; S 4.77; T 4.11; D 4.04; P 4.43; Y 4.09
I7: F 4.27; H 5.15; P 4.89; R 5.16; E 4.64; V 4.75; S 4.92; C 4.28; Q 4.55; N 5.08; A 4.71; L 4.99; M 4.84; D 5.62; Y 4.7; W 4.24; G 5.1
R13: C 3.5; T 4.58; A 4.58; G 5.25; Q 4.41; W 3.27; S 4.24; K 4.1; N 4.63; M 4.27; V 4.93; H 4.6; L 4.13; P 4.9; Y 3.44; I 4.11; D 4.67
L1: S 4; P 5.11; M 4.58; C 4.8; E 4.55; H 4.88; N 4.61; V 4.7; F 3.33; K 4.67; Q 4.92; W 3.35; Y 5; T 5.34; R 4.52; D 4.42; I 4.12
E15: A 3.79; V 2.6; R 3.87; W 2.2; K 3.46; F 2.31; L 2.81; H 3.87; Q 3.5; D 4.22; I 3.31; N 4.7
L8: K 4.98; T 5.09; A 4.96; C 4.93; Q 5.5; D 5.35; V 4.83; E 5.09; H 4.74; S 5.37; R 4.92; P 5.65; W 4.31; I 4.46; F 4; G 5.23; M 4.46; Y 4.42
A3: S 5.35; K 4.57; G 4.53; N 4.43; Y 3.6; L 3.71; H 3.86; T 4.49; V 2.89; M 3.65; E 4.74; R 4.41; Q 4.79; D 5.14; C 4.92; I 2.88
A11: M 4.46; R 4.71; W 3.23; L 4.77; P 5.38; N 4.18; T 3.04; Q 4.11; S 4.12; D 4.97; Y 3.47; F 3.27; V 4.54; C 4.14; E 4.69; I 3.33; G 4.14; H 4.05
G14: M 3.45; H 4.28; R 4.19; N 4.53; P 4.29; I 3.85; D 4.68; C 4.2; F 2.88; A 4.55; S 4.46; Q 4.63; Y 3.64; E 4.53; T 4.21; L 3.76; V 3.47
H10: K 4.48; Y 3.15; M 3.15; E 5.19; F 3.05; N 3.78; C 3.63; T 4.65; G 3.87; V 3.92; Q 4.88; L 4.34; S 4.41; I 2.88; P 4.41
